Experimental data published in article PMC3155019, “Dynamics of the Phosphoinositide 3-Kinase p110δ Interaction with p85α and Membranes Reveals Aspects of Regulation Distinct from p110α” (Structure(London, England:1993), 2011).
Non-standard residues stand in square brackets, D forms with d. No end group written: not given here. pY = N[C@@H](Cc1ccc(OP(=O)(O)O)cc1)C(=O)O

Biological target: p110δ+p85α nicSH2 complex (human | , UniProt O00329 1-1044; P27986 322-724)
Experiment: cell-based or functional assay

p110δ+p85α nicSH2 complex, sequence (O00329 whole entry, stated change not applied, chain 1 of 2): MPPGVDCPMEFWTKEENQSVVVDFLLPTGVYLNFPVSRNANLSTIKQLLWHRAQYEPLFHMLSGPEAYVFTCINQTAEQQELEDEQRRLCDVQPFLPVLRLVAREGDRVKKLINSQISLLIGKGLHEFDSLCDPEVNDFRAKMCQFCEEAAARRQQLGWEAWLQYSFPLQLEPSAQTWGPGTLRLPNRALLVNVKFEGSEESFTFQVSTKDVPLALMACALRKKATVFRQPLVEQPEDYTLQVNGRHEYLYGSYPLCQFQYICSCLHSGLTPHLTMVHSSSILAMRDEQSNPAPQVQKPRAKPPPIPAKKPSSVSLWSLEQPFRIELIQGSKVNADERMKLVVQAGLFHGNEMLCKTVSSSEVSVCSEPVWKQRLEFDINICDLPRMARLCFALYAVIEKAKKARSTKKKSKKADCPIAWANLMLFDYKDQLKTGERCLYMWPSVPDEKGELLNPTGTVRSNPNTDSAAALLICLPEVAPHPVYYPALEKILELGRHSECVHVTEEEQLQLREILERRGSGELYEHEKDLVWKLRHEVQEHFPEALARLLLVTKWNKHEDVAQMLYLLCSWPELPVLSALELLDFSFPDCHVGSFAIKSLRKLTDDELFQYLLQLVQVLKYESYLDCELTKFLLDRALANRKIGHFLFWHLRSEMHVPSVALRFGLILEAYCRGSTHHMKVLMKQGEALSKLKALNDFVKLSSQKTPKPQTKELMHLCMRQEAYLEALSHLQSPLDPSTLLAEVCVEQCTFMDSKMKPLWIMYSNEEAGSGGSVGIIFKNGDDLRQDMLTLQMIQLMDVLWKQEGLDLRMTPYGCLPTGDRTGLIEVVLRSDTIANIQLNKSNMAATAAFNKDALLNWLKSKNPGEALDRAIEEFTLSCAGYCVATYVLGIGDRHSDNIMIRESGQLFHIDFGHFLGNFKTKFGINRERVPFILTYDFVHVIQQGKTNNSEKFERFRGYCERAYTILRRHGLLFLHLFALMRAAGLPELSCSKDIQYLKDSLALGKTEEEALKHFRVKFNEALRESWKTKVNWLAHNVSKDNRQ
p110δ+p85α nicSH2 complex, sequence (P27986 322-724, stated change not applied, chain 2 of 2): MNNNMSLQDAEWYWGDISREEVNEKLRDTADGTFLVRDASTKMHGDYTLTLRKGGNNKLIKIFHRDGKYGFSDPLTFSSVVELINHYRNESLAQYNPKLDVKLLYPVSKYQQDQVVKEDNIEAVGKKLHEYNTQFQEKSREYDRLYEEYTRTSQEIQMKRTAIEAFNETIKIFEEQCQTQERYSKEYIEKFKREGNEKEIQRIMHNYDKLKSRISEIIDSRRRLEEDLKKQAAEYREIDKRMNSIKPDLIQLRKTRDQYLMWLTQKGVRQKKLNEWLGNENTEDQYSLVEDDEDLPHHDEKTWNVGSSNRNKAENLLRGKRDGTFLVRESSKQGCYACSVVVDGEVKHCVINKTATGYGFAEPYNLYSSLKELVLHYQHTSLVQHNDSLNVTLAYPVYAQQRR

B1: PDGFR bis-phosphorylated pY peptide (residues 735–767, with pY740 and pY751) (peptide)
peptide: ESDGG[pY]MDMSKDESID[pY]VPMLDMKGDIKYADIE
activation of the lipid kinase activity of p110δ+nicSH2 by 10 μM PDGFR pY: ~13 fold
